Laboratory results taken from publication PMC11599015.

Molecular target: recombinant circular RABV N10-RNA complex purified from insect cells (phosphorylated) (rabies virus (RABV)) (UniProt Q8JXF6)
Test: SPR

Sequence of recombinant circular RABV N10-RNA complex purified from insect cells (phosphorylated) (rabies virus (RABV)) (Q8JXF6 whole entry, one chain of several): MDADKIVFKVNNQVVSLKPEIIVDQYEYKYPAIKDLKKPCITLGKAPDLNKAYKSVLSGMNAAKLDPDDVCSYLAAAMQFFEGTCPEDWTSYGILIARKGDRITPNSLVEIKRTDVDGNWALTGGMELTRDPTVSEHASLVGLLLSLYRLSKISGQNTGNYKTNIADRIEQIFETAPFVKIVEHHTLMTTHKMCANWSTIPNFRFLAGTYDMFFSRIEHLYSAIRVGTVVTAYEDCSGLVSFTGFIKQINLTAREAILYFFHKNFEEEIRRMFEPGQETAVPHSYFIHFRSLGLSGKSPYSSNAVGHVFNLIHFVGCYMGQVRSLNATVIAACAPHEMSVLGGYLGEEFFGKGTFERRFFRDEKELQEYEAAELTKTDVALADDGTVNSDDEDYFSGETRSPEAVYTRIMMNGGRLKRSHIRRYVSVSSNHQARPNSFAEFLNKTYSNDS

RABV phosphoprotein P deleted of residues 90-133 (dimerization domain) (domain or fragment)
Kd: 80 nM
stoichiometry N: 1.7
